The values below come from patent publication US20240360214A1 (Pfizer, published 2024).

Residue numbers refer to the chain shown, from its start. Where two headings read alike, the source gives them in different places.

Assay [1] addresses T1, huLILRA1 (human, UniProt O75019 17-461, limits assumed). In words: SPR (Biacore), antibody captured.
Assay [2] deals with T2, huLILRA2 (human, UniProt Q8N149 24-449, limits assumed). In words: SPR (Biacore), antibody captured.
Assay [3] deals with T3, huLILRA5 (human, UniProt A6NI73 42-268, limits assumed). The assay can be described thus: SPR (Biacore), antibody captured.
Assay [4] addresses T4, LILRB1 expressed on THP1 cells (human, UniProt Q8NHL6 24-650).
T4 construct: whole, on cells; also called THP1 LILRB1 expressing cells; THP1-LILRB1 cells
In words: flow cytometry competition with PE HLA-G tetramer on THP1-LILRB1 cells. On the procedure: (§1) LILRB1 or LILRB2 overexpressing THP1 cells were prepared in FACS buffer (0.5% BSA in PBS) and seeded in 100 μl/well (96 well plate) at 1λ10⁶ cells/ml concentration. The tested antibodies were serially diluted 3-fold into assay buffer starting from 200 nM. 40 μl of serial diluted antibody together with 40 μl of PE labelled HLA-G tetramer (FRED HUTCH IMT40509) at 2 ug/ml were added to each well and incubated on ice for 1 hour. The cells were washed 2 times with FACS buffer and resuspended in 50 μl/well FACS buffer containing 1:1000 dilution of LIVE/Dead fixable violet dead cell stain (Invitrogen #L34964), incubated on ice for 15 minutes. The cells were then washed with FACS buffer for 2 times and resuspended in 80 μl of Cytofix buffer (BD Cat #554655).

Assay [5] has as its target T4, LILRB1 expressed on THP1 cells. In words: flow cytometry competition with PE HLA-G tetramer on THP1-LILRB1 cells (THP-B1). On the procedure:
as §1

Assay [6] has as its target T5, human LILRB1 (huLILRB1), purified recombinant protein from R&D Systems (human, UniProt Q8NHL6 24-458, limits assumed).
T5 construct: Bought protein, used as the SPR analyte and as the ELISA coat; The catalog number 8429-T4 is printed once for 'human LILRB2 or LILRB1'
In words: SPR (Biacore 8K, 37 C), antibody captured by anti-human Fc, huLILRB1 as analyte, 1:1 fit. The procedure: Biacore kinetic assays were conducted at 37° C. with a collection rate of 10 Hz using the Biacore 8K and 8K+ instruments (Cytiva). […] The final capture levels of the antibodies ranged from 20 resonance units (RU) to 60 RU. HBS-EP+pH 7.4 (10 mM HEPES pH 7.4, 150 mM NaCl, 3 mM EDTA, 0.05% Tween 20) was used as sample and running buffer. Flow cell 1 was used as a reference flow cell. Two-fold serial dilutions of human LILRB2 or LILRB1 (R&D Systems, Catalog number: 8429-T4) were prepared with concentrations from 45 nM to 1.667 nM for LILRB2; 405 nM to […] for LILRB1. Dilutions were prepared in duplicate and injected over all flow cells for 60 s at flow rate of 50 μl per minute. Dissociation was monitored for 600 s and the surface was regenerated with two 30 s injections of 3M MgCl₂ at flow rate of 50 μl per minute. The resulting data was double referenced (Myszka, D. G. Improving biosensor analysis. J. Mol. Recognit. 12:279-284; (1999). Rate constants and affinities were determined by fitting the sensorgram data to a Langmuir 1:1 model using Biacore Insight Evaluation software version 3.0.12 (Cytiva).

Assay [7] has as its target T4, LILRB1 expressed on THP1 cells. In words: flow cytometry competition with PE HLA-G tetramer on THP1-LILRB1 cells. The procedure:
as §1
(§2) The cell-based HLA-G ligand blocking assays followed the same procedure as described in Example 2.
This is another data set of the same source.

For assay [8], the target named is T6, LILRB2 expressed on THP1 cells (human, UniProt Q8N423 22-597).
T6 construct: whole, on cells; also called THP1 LILRB2 expressing cells; THP1-LILRB2 cells
In words: flow cytometry competition with PE HLA-G tetramer on THP1-LILRB2 cells. On the procedure: as §1, §2

The target of assay [9] is T5, human LILRB1 (huLILRB1), purified …. The assay can be described thus: SPR (Biacore 8K, 37 C), antibody captured by anti-human Fc, huLILRB1 as analyte, 1:1 fit. On the procedure: Biacore kinetic assays were conducted at 37° C. with a collection rate of 10 Hz using the Biacore 8K and 8K+instruments (Cytiva). Anti-LILRB2 antibodies were captured by an anti-human IgG (Fc specific) antibody (BR-1008-39, Cytiva) covalently coupled onto a CM5 sensor chip (29-1496-03, Cytiva) according to the manufacturer's instructions. The final capture levels of the antibodies ranged from 20 resonance units (RU) to 60 RU. HBS-EP+pH 7.4 (10 mM HEPES pH 7.4, 150 mM NaCl, 3 mM EDTA, 0.05% Tween 20) was used as sample and running buffer. Flow cell 1 was used as a reference flow cell. […] Dilutions were prepared in duplicate and injected over all flow cells for 60 s at flow rate of 50 μl per minute. Dissociation was monitored for 600 s and the surface was regenerated with two 30 s injections of 3M MgCl₂ at flow rate of 50 μl per minute. The resulting data was double referenced (Myszka, D. G. Improving biosensor analysis. J. Mol. Recognit. 12:279-284; (1999). Rate constants and affinities were determined by fitting the sensorgram data to a Langmuir 1:1 model using Biacore Insight Evaluation software version 3.0.12 (Cytiva). Results are summarized in Table 7.
This is another data set of the same source.

Assay [10] deals with T7, human LILRB2 (huLILRB2), purified recombinant protein (human, UniProt Q8N423 22-458, limits assumed).
T7 construct: Bought protein, used as the SPR analyte and as the ELISA coat; also called huLILIB2
The assay can be described thus: SPR (Biacore 8K, 37 C), antibody captured by anti-human Fc, huLILRB2 as analyte, 1:1 fit.

Assay [11] concerns the target T1, huLILRA1. In words: ELISA, target coated on the plate, detection with anti-human IgG-HRP, OD at 450 nm. The procedure:
(§3) Purified target proteins huLILRA1, A2, A3, A4, A5, A6, huLILRB1, B2, B3, B4 and B5 (all purchased from R&D) were coated on Nunc-Maxisorb 96-well ELISA plate at 1 ug/ml concentration and stored at 4° C. overnight. Plate was washed 3 times with PBS+0.05% Tween-20 and blocked with PBS+3% milk for 1 hour at room temperature. Tested LILRB1/LILRB2 bispecific antibody was serially diluted 5-fold in PBS+3% milk, starting from 133 nM. Blocking solution was removed and serially diluted antibody was added and incubated for 1 hour at room temperature. Plate was washed and a secondary detecting antibody (goat anti-human IgG-HRP from Invitrogen, Cat #31413, 1:5000) was added and incubated for 30 minutes at room temperature. Plate was washed again for 5 times; signal was developed using TMB substrate and the reaction stopped with 0.18M H₂SO₄. Absorbance was read at 450 nm on an envision plate reader (Perkin Elmer). […] There were no binding activities observed to any of the huLILRA family members tested, and no binding to huLILRB3, B4 or B5.

The target of assay [12] is T2, huLILRA2. Described as above. The procedure:
as §3

For assay [13], the target named is huLILRA3 (human, UniProt Q8N6C8 24-439). The description is as above. The procedure: as §3
Assay [14] has as its target huLILRA4 (human, UniProt P59901 24-446, limits assumed). The description is as above. On the procedure: as §3
Assay [15] deals with T3, huLILRA5. Described as above. The procedure: as §3
In assay [16] the target is huLILRA6 (human, UniProt Q6PI73 24-447, limits assumed). Described as above. The procedure:
as §3

Assay [17] has as its target huLILRB3 (human, UniProt O75022 24-443, limits assumed). The assay is described as above. The procedure: as §3
Assay [18] deals with huLILRB4 (human, UniProt Q8NHJ6 22-259, limits assumed). The assay is described as above. The procedure:
as §3

In assay [19] the target is huLILRB5 (human, UniProt O75023 24-458, limits assumed). Described as above. The procedure: as §3
For assay [20], the target named is T7, human LILRB2 (huLILRB2), purified …. The assay is described as above. On the procedure:
as §3

T5 sequence (Q8NHL6 24-458 limits assumed): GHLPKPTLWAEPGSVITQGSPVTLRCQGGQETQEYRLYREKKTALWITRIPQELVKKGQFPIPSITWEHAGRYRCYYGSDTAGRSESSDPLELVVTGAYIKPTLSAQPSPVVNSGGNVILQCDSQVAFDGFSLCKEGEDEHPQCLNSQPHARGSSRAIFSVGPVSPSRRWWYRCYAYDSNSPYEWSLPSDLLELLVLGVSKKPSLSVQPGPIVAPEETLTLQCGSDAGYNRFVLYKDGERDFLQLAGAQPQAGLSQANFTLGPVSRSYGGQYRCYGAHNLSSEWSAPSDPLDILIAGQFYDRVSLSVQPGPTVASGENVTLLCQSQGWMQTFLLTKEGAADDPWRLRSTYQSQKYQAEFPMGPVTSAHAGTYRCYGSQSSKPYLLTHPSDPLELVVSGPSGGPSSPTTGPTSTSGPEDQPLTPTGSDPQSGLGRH
T4 sequence (Q8NHL6 24-650): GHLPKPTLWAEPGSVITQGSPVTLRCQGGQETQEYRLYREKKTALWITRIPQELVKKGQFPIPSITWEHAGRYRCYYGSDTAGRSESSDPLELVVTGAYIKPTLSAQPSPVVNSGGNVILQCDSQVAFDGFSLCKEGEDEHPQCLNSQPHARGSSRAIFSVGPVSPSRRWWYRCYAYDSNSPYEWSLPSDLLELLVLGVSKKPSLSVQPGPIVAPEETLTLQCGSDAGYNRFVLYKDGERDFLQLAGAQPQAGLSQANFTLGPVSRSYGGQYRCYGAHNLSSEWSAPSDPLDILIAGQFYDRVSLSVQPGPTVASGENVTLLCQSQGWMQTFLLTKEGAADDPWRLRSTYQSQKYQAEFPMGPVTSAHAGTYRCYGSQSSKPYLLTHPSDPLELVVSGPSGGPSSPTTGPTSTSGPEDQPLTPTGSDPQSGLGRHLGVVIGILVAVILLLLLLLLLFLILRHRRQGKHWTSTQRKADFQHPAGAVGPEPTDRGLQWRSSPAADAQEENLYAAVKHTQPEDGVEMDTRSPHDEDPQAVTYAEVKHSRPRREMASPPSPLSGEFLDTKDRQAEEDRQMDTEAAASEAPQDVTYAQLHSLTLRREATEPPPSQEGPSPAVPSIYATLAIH
T7 sequence (Q8N423 22-458 limits assumed): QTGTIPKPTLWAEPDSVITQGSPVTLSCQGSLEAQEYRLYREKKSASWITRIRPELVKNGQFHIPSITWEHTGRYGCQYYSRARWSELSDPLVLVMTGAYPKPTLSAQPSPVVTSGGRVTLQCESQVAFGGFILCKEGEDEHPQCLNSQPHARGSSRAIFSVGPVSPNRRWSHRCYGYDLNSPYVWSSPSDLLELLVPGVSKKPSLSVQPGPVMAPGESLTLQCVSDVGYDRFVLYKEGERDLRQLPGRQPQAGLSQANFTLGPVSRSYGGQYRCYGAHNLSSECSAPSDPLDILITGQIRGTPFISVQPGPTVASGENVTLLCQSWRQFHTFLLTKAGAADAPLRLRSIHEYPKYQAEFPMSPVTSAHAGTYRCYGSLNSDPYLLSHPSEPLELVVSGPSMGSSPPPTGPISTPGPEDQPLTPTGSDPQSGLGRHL
T2 sequence (Q8N149 24-449 limits assumed): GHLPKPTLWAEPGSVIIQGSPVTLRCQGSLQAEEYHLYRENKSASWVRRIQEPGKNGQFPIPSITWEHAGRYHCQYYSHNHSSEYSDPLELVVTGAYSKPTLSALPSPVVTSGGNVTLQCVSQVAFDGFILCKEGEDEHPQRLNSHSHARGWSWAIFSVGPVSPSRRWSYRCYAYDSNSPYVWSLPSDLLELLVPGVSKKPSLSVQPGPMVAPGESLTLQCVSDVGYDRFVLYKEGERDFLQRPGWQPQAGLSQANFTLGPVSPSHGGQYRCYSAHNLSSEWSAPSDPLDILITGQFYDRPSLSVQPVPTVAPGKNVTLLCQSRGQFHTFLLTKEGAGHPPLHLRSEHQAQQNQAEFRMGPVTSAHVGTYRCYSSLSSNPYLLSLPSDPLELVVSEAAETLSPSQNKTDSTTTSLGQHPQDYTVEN
T3 sequence (A6NI73 42-268 limits assumed): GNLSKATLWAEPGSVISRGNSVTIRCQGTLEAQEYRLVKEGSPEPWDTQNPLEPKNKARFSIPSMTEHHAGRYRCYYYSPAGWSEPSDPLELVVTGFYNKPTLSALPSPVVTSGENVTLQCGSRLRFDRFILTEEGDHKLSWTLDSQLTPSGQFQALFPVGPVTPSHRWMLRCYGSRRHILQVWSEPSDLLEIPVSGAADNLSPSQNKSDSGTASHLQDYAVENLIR
T6 sequence (Q8N423 22-597): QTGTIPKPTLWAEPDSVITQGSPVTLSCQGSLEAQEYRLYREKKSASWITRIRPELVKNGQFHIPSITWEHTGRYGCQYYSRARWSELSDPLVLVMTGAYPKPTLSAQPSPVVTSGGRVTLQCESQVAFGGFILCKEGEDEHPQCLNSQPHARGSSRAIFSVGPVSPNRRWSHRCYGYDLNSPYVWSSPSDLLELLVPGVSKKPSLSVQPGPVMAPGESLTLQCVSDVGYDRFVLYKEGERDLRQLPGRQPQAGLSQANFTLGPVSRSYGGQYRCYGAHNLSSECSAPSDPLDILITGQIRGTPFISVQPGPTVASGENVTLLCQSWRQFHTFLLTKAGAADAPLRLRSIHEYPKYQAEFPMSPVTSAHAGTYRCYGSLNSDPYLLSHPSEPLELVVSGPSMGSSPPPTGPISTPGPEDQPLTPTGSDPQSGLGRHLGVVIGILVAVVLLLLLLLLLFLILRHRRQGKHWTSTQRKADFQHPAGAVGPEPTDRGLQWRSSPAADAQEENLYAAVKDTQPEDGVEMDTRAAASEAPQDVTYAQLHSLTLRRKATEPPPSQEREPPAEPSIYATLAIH
T1 sequence (O75019 17-461 limits assumed): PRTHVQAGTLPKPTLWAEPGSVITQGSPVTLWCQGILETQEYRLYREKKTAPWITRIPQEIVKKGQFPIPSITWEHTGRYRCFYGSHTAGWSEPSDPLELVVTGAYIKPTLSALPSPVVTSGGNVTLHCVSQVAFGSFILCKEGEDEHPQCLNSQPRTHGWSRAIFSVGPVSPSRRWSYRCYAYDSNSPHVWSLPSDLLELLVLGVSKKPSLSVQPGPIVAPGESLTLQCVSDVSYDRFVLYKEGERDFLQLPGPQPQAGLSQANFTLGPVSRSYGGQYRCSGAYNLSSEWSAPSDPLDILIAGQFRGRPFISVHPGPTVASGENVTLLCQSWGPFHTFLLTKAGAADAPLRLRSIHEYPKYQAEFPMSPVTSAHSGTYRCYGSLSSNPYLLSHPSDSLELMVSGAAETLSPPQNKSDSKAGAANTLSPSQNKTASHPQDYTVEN
Chain of huLILRA6 (Q6PI73 24-447 limits assumed): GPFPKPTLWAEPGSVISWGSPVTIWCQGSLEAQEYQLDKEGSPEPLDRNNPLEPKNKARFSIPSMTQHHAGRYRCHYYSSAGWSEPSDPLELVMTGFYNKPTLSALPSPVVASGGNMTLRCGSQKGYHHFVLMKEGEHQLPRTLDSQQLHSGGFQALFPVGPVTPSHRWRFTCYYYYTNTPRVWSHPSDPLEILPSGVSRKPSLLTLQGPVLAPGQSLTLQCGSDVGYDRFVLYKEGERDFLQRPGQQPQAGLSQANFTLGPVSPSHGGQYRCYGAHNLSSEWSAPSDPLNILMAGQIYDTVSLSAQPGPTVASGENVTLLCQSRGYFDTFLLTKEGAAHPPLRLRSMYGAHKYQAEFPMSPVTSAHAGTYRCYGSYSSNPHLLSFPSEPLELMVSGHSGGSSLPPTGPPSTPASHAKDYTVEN
Chain of huLILRB5 (O75023 24-458 limits assumed): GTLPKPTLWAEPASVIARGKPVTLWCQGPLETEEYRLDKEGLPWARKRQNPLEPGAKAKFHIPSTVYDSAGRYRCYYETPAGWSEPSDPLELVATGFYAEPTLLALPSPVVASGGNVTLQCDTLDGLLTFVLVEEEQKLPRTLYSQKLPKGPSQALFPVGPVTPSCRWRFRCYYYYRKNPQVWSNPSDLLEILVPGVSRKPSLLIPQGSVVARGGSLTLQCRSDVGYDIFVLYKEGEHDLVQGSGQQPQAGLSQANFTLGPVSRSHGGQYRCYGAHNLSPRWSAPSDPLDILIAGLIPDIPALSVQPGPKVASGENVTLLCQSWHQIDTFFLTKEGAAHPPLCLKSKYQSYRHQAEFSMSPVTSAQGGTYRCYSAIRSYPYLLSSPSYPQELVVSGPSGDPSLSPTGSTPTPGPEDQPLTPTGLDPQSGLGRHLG
Chain of huLILRA4 (P59901 24-446 limits assumed): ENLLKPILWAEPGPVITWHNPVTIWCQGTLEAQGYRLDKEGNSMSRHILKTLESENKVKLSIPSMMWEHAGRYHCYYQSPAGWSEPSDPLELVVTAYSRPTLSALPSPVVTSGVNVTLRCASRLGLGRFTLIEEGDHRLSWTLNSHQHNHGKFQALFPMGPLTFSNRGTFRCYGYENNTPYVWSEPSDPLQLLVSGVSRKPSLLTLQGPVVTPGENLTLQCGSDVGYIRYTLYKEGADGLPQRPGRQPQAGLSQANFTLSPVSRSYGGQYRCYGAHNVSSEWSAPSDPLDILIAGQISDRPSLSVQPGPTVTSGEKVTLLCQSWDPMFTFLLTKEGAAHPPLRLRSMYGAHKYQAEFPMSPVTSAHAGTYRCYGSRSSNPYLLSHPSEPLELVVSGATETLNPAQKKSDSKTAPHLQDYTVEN
Chain of huLILRA3 (Q8N6C8 24-439 limits assumed): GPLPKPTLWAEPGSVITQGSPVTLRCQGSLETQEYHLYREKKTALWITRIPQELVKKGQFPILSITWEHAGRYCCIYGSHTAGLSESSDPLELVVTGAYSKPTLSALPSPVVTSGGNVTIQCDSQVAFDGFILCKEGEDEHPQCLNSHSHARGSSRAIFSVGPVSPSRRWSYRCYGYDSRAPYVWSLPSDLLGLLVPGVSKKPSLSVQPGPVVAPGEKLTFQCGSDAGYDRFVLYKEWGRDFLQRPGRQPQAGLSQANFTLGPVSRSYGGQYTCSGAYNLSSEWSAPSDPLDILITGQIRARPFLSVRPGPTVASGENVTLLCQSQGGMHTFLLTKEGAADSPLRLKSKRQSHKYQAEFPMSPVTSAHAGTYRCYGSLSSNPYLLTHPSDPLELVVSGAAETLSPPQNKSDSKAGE

B1: anti-LILRB1 antibody Ab-B1-1704 (antibody, human IgG1, lambda, V domains shown)
VH: EVQLVESGGGLVQPGGSLRLSCAASGFTFSSYAMHWVRQAPGKGLEWVAVISYDGSNKYYADSVKGRFTISRDNAKNSLYLQMNSLRAEDTAVYYCARDKGIGTSPLDYWGQGTLVTVSS
VL: SYELTQPPSVSVSPGQTASITCGGNNIGSKGVHWYQQKPGQSPVLVISYDSDRPSGIPERFSGSNSGNTATLTISGTQAMDEADYYCQVWDSSTRVFGTGTKVTVLG
Consider B1, for which, in [1], the binding result is recorded as “no binding”. In addition, in assay [2], the binding result was “no binding”. The binding result in assay [3] is recorded as “no binding”. This molecule had an IC50 in assay [4] of 1.5 nM. Besides, the concentration giving a half-maximal response (EC50) in assay [5] was 2.69 nM. For the same molecule, in [6], the Kd was 26 nM, the off-rate constant (koff) was found to be 0.014 s⁻¹, the kon was 539000 M⁻¹ s⁻¹ and the “t½” value worked out at 49.5 s.

B2: LILRB1xLILRB2 bispecific antibody BsAb-1882 (bispecific antibody)
heavy 1: not shown
light 1: SYELTQPPSVSVSPGQTASITCGGNNIGSKGVHWYQQKPGQSPVLVISYDSDRPSGIPERFSGSNSGNTATLTISGTQAMDEADYYCQVWDSSTRVFGTGTKVTVLGQPKAAPSVTLFPPSSEELQANKATLVCLISDFYPGAVTVAWKADSSPVKAGVETTTPSKQSNNKYAASSYLSLTPEQWKSHRSYSCQVTHEGSTVEKTVAPTECSDKTHTCPPCPAPEAAGAPSVFLFPPKPKDTLMISRTPEVTCVVVDVSHEDPEVKFNWYVDGVEVHNAKTKPREEQYNSTYRVVSVLTVLHQDWLNGKEYKCKVSNKALPAPIEKTISKAKGQPREPQVYTLPPCREEMTKNQVSLSCAVKGFYPSDIAVEWESNGQPENNYKTTPPVLDSDGSFFLVSKLTVDKSRWQQGNVFSCSVMHEALHNHYTQKSLSLSPGK
heavy 2: EVQLLESGGGLVQPGGSLRLSCAASGFTFSSYAMSWVRQAPGKGLEWVSAISGSGGSTYYADSVKGRFTISRDNSKNTLYLQMNSLRAEDTAVYYCWRWLNLGDAFDIWGQGTMVTVSSASTKGPSVFPLAPSSKSTSGGTAALGCLVKDYFPEPVTVSWNSGALTSGVHTFPAVLQSSGLYSLSSVVTVPSSSLGTQTYICNVNHKPSNTKVDKKVEPKSCDKTHTCPPCPAPEAAGAPSVFLFPPKPKDTLMISRTPEVTCVVVDVSHEDPEVKFNWYVDGVEVHNAKTKPREEQYNSTYRVVSVLTVLHQDWLNGKEYKCKVSNKALPAPIEKTISKAKGQPREPQVCTLPPSREEMTKNQVSLWCLVKGFYPSDIAVEWESNGQPENNYKTTPPVLDSDGSFFLYSKLTVDKSRWQQGNVFSCSVMHEALHNHYTQKSLSLSPGK
light 2: not shown
notes: The B1 arm Fc chain is joined to the light chain CL; also called LILRB1/LILRB2 bispecific antibody
For B2, the IC50 in assay [7] was 37.6 nM; in [8], 15.4 nM. Moreover, the equilibrium dissociation constant (Kd) in assay [9] turned out to be 29.8 nM; in assay [10] it was 0.73 nM. In addition, the off-rate constant (koff) in assay [9] is 0.0135 s⁻¹; in assay [10], 0.000323 s⁻¹. For the same molecule, the results for the kon in assay [9] and in assay [10] were 457000 M⁻¹ s⁻¹ and 443000 M⁻¹ s⁻¹, respectively. Moreover, the entries for the “t½” value in [9] and in assay [10] were 51.3 s and 35.8 min, respectively. The binding result in assay [11], in [12], in assay [13], in [14], in assay [15] and in [16] was “no binding (tested: about 130 nM)” each time. The binding result in assay [17], in assay [18] and in assay [19] was “no binding (tested: about 130 nM)” in each case. Besides, the concentration giving a half-maximal response (EC50 (read off the curve)) in assay [20] is approximately 0.6 nM.

B3: LILRB1xLILRB2 bispecific antibody BsAb-1880 (bispecific antibody, human IgG1)
heavy 1: not shown
light 1: SYELTQPPSVSVSPGQTASITCGGNNIGSKGVHWYQQKPGQSPVLVISYDSDRPSGIPERFSGSNSGNTATLTISGTQAMDEADYYCQVWDSSTRVFGTGTKVTVLGQPKAAPSVTLFPPSSEELQANKATLVCLISDFYPGAVTVAWKADSSPVKAGVETTTPSKQSNNKYAASSYLSLTPEQWKSHRSYSCQVTHEGSTVEKTVAPTECS
heavy 2: B2 heavy 2 with D223E, C351Y, W368T, L370E
light 2: not shown
In the case of B3, the half-maximal inhibitory concentration (IC50) in assay [7] is 43.2 nM; in [8], 16.1 nM.
